Earlier results in publication PMC8308721, “An Effective and Safe Enkephalin Analog for Antinociception” (Pharmaceutics, 2021).

Molecular target: [3H]DADLE ([D-Ala2, D-Leu5]-enkephalin)
Test: radioligand

- Kd: 0.6 nM
Substance: Delta opioid receptor (from UniProt P41143)
